B1: DNA topoisomerase 3-beta-1 (Homo sapiens), O95985 (parent)
chain: MKTVLMVAEKPSLAQSIAKILSRGSLSSHKGLNGACSVHEYTGTFAGQPVRFKMTSVCGHVMTLDFLGKYNKWDKVDPAELFSQAPTEKKEANPKLNMVKFLQVEGRGCDYIVLWLDCDKEGENICFEVLDAVLPVMNKAHGGEKTVFRARFSSITDTDICNAMACLGEPDHNEALSVDARQELDLRIGCAFTRFQTKYFQGKYGDLDSSLISFGPCQTPTLGFCVERHDKIQSFKPETYWVLQAKVNTDKDRSLLLDWDRVRVFDREIAQMFLNMTKLEKEAQVEATSRKEKAKQRPLALNTVEMLRVASSSLGMGPQHAMQTAERLYTQGYISYPRTETTHYPENFDLKGSLRQQANHPYWADTVKRLLAEGINRPRKGHDAGDHPPITPMKSATEAELGGDAWRLYEYITRHFIATVSHDCKYLQSTISFRIGPELFTCSGKTVLSPGFTEVMPWQSVPLEESLPTCQRGDAFPVGEVKMLEKQTNPPDYLTEAELITLMEKHGIGTDASIPVHINNICQRNYVTVESGRRLKPTNLGIVLVHGYYKIDAELVLPTIRSAVEKQLNLIAQGKADYRQVLGHTLDVFKRKFHYFVDSIAGMDELMEVSFSPLAATGKPLSRCGKCHRFMKYIQAKPSRLHCSHCDETYTLPQNGTIKLYKELRCPLDDFELVLWSSGSRGKSYPLCPYCYNHPPFRDMKKGMGCNECTHPSCQHSLSMLGIGQCVECESGVLVLDPTSGPKWKVACNKCNVVAHCFENAHRVRVSADTCSVCEAALLDVDFNKAKSPLPGDETQHMGCVFCDPVFQELVELKHAASCHPMHRGGPGRRQGRGRGRARRPPGKPNPRRPKDKMSALAAYFV
B2: Tudor domain-containing protein 3 (Homo sapiens), Q9H7E2-3 (parent)
chain: MAQVAGAALSQAGWYLSDEGIEACTSSPDKVNVNDIILIALNTDLRTIGKKFLPSDINSGKVEKLEGPCVLQIQKIRNVAAPKDNEESQAAPRMLRLQMTDGHISCTAVEFSYMSKISLNTPPGTKVKLSGIVDIKNGFLLLNDSNTTVLGGEVEHLIEKWELQRSLSKHNRSNIGTEGGPPPFVPFGQKCVSHVQVDSRELDRRKTLQVTMPVKPTNDNDEFEKQRTAAIAEVAKSKETKTFGGGGGGARSNLNMNAAGNRNREVLQKEKSTKSEGKHEGVYRELVDEKALKHITEMGFSKEASRQALMDNGNNLEAALNVLLTSNKQKPVMGPPLRGRGKGRGRIRSEDEEDLGNARPSAPSTLFDFLESKMGTLNVEEPKSQPQQLHQGQYRSSNTEQNGVKDNNHLRHPPRNDTRQPRNEKPPRFQRDSQNSKSVLEGSGLPRNRGSERPSTSSVSEVWAEDRIKCDRPYSRYDRTKDTSYPLGSQHSDGAFKKRDNSMQSRSGKGPSFAEAKENPLPQGSVDYNNQKRGKRESQTSIPDYFYDRKSQTINNEAFSGIKIEKHFNVNTDYQNPVRSNSFIGVPNGEVEMPLKGRRIGPIKPAGPVTAVPCDDKIFYNSGPKRRSGPIKPEKILESSIPMEYAKMWKPGDECFALYWEDNKFYRAEVEALHSSGMTAVVKFIDYGNYEEVLLSNIKPIQTEAWEEEGTYDQTLEFRRGGDGQPRRSTRPTQQFYQPPRARN
partner: B1 chain

Variants of B1 are the subject of the first assay. Conditions: with TDRD3, Q9H7E2-3.
Consider D266A, for which the “effect of a mutation on the interaction” value is reported as “with no effect”.

In another assay the parent is B2. Conditions: with top3b_human TOP3B, O95985.
Consider P92S;M94S, for which the “effect of a mutation on the interaction” value is on record as “disrupting interaction strength”.

With F111Y, the “effect of a mutation on the interaction” value is listed as “with no effect”.

With F111S, the “effect of a mutation on the interaction” value was “with no effect”.

R96M;F111Y: the “effect of a mutation on the interaction” value was “with no effect”.

For the variant V79S, the “effect of a mutation on the interaction” value is “with no effect”.

R96M;F111Y;F139V: the “effect of a mutation on the interaction” value is listed as “with no effect”.

In the case of A80S;A81Q;A90K;A91P;P92S, the “effect of a mutation on the interaction” value is on record as “with no effect”.

For the variant R96M;V109M, the “effect of a mutation on the interaction” value was “with no effect”.

As for R96M;F139V, the “effect of a mutation on the interaction” value is on record as “with no effect”.

As for R96M, the “effect of a mutation on the interaction” value was “with no effect”.

Take R96A: the “effect of a mutation on the interaction” value is recorded as “with no effect”.

As for R96M;V109M;F139V, the “effect of a mutation on the interaction” value is on record as “with no effect”.

For R96M;V109M;F111Y, the “effect of a mutation on the interaction” value is reported as “with no effect”.

Consider V79S;A80S;A81S;P82S, for which the “effect of a mutation on the interaction” value was “decreasing interaction strength”.

With M94S, the “effect of a mutation on the interaction” value is “disrupting interaction strength”.

In the case of V109S;F111S, the “effect of a mutation on the interaction” value is “disrupting interaction strength”.

On to A80S;A81S, for which the “effect of a mutation on the interaction” value is “with no effect”.

For the variant V79S;P82S, the “effect of a mutation on the interaction” value was “decreasing interaction strength”.

As to F139S;L141S, the “effect of a mutation on the interaction” value was “disrupting interaction strength”.

As for P82S, the “effect of a mutation on the interaction” value is on record as “with no effect”.

L141S: the “effect of a mutation on the interaction” value is on record as “with no effect”.

Turning to P92S, the “effect of a mutation on the interaction” value is reported as “decreasing interaction strength”.

As for V109S, the “effect of a mutation on the interaction” value was “disrupting interaction strength”.

As for V109M, the “effect of a mutation on the interaction” value is reported as “with no effect”.

R96M;V109M;F111Y;F139V: the “effect of a mutation on the interaction” value is “decreasing interaction strength”.

For V109M;F111Y;F139V, the “effect of a mutation on the interaction” value was “with no effect”.

Regarding F139S, the “effect of a mutation on the interaction” value is recorded as “decreasing interaction strength”.

Take F139V: the “effect of a mutation on the interaction” value is “with no effect”.

Source of the values: IntAct's records for PubMed 28176834.
